Measured values published in patent US20140228546A1 (Ablynx, published 2014).

Experiments:
[1] = target: T1, c-MET receptor on A549 cells (UniProt P08581 25-1390, limits assumed); test: cell-based or functional assay
[2] = target: T1, c-MET receptor on A549 cells; test: cell-based or functional assay; remark: listed apart in the source
human serum albumin [3] = target: T2, human serum albumin (human, UniProt P02768 25-609); test: SPR, Biacore T100, albumin immobilized on CM5, 25 C, 1:1 model
T2 construct: also called Human SA; HSA
Method: (§1) HBS-EP+ buffer (0.01M HEPES buffer containing 0.15M NaCl, 3 mM EDTA and 0.05% Surfactant p20, pH7.4) was used as the running buffer and experiments were performed at 25° C. Serum albumin was chemically coupled on a Series S sensorchip chip CM5 with carboxymethylated dextran surface by a manual immobilization run at a flow rate of 5 μl/min. […] After immobilization, surfaces were deactivated with a 7 min injection of 1M ethanolamine pH8.5. A blank reference surface (flowcell 1) was activated and deactivated as described above. […] Between different samples, the surfaces were regenerated with regeneration buffer 10 mM glycine-HCl pH1.5, 100 s at 45 μl/min. Data were double referenced by subtraction of the curves on the reference channel and of a blank running buffer injection curve. Processed curves were evaluated by fitting a 1:1 binding model onto the binding curves in the Biacore T100 Evaluation software.

cynomolgus serum albumin [4] = target: T3, cynomolgus serum albumin (cynomolgus, UniProt A2V9Z4 25-608); test: as above
T3 construct: also called Cyno SA
Method: as §1

mouse serum albumin = target: T4, mouse serum albumin (mouse, UniProt P07724 25-608); test: as above
T4 construct: also called Murine SA
Method: as §1

c-MET/Fc [5] = target: T5, c-MET/Fc (UniProt P08581 25-932); test: HGF/c-MET competition AlphaScreen; competitor: 100 pM biotinylated hHGF
T5 construct: also called c-MET receptor; not shown: Fc part, captured by anti-human Fc acceptor beads

c-MET/Fc [6] = target: T5, c-MET/Fc; test: as above; remark: listed apart in the source
Method: To this mixture the anti-human Fc conjugated acceptor beads and c-MET/Fc (100 μM final concentration) were added and incubated for 2 hours at RT. Next, streptavidin donor beads were added and the mixture was incubated for 1 additional hour. Fluorescence was measured by reading plates on the EnVision Multilabel Plate Reader using an excitation wavelength of 680 nm and an emission wavelength of 520 nm.

human serum albumin [7] = target: T2, human serum albumin; test: method not stated (Table 6 comparison)
cynomolgus serum albumin [8] = target: T3, cynomolgus serum albumin; test: method not stated (Table 6 comparison)

T2 sequence (P02768 25-609 limits assumed): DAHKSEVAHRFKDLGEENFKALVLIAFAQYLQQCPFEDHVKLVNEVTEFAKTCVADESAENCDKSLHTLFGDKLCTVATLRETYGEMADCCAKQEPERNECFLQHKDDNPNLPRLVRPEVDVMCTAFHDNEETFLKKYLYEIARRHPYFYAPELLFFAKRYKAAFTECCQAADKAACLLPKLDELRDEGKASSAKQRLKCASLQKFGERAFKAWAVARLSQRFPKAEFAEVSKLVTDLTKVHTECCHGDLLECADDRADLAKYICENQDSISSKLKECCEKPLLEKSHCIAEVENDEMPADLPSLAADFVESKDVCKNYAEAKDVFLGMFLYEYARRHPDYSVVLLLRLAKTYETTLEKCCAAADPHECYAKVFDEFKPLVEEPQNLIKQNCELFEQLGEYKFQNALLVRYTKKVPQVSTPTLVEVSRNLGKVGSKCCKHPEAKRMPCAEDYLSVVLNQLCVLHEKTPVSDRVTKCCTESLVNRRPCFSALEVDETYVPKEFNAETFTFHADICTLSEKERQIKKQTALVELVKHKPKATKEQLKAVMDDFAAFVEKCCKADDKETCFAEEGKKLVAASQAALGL
T3 sequence (A2V9Z4 25-608 limits assumed): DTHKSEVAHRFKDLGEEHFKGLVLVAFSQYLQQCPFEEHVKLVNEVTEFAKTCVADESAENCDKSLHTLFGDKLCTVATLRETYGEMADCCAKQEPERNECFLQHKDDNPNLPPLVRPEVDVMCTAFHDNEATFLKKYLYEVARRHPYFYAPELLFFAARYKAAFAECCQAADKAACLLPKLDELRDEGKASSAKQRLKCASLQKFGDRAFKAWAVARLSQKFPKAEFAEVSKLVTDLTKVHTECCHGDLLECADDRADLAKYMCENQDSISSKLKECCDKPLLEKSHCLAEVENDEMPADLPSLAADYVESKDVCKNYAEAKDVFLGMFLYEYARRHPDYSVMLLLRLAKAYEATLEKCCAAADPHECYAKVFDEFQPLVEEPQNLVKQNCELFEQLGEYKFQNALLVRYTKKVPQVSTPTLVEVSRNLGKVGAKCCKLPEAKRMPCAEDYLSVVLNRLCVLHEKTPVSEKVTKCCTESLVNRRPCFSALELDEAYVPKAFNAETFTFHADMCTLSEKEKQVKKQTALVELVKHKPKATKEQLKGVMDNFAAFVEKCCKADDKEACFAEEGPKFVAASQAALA
T1 sequence (P08581 25-1390 limits assumed): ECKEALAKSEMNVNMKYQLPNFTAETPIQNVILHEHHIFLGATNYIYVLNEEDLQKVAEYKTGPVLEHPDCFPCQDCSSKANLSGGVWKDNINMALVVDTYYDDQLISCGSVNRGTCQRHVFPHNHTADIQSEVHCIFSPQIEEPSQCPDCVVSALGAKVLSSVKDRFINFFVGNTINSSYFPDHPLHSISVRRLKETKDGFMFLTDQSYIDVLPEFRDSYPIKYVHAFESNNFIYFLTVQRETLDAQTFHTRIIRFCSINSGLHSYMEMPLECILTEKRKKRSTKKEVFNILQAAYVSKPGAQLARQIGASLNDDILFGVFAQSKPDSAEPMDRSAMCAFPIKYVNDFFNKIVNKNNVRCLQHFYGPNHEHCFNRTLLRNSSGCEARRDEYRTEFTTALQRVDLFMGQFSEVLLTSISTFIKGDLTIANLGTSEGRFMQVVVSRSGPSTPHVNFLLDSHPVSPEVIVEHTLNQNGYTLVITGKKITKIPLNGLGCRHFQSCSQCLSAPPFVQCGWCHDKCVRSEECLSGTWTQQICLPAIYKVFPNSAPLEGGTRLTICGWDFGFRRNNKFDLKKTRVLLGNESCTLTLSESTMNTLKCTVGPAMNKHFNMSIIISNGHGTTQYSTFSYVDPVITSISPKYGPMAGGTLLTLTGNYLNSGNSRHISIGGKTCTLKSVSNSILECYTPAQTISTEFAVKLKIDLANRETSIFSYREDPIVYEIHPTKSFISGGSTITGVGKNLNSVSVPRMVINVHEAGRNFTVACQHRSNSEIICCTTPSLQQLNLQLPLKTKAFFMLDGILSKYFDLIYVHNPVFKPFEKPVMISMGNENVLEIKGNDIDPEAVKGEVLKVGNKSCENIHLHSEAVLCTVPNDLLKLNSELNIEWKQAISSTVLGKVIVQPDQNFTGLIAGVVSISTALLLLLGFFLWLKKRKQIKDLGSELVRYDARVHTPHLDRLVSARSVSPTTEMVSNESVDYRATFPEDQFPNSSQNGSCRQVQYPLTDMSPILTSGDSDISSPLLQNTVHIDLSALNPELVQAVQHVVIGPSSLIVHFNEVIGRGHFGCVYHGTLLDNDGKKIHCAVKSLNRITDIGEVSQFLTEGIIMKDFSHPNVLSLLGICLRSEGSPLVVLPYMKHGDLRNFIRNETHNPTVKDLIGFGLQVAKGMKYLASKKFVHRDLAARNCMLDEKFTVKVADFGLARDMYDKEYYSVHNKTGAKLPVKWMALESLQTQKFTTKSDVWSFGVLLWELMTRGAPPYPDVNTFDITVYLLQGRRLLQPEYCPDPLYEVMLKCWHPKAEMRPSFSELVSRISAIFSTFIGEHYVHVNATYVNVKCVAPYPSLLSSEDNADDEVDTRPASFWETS
T5 sequence (P08581 25-932 limits assumed): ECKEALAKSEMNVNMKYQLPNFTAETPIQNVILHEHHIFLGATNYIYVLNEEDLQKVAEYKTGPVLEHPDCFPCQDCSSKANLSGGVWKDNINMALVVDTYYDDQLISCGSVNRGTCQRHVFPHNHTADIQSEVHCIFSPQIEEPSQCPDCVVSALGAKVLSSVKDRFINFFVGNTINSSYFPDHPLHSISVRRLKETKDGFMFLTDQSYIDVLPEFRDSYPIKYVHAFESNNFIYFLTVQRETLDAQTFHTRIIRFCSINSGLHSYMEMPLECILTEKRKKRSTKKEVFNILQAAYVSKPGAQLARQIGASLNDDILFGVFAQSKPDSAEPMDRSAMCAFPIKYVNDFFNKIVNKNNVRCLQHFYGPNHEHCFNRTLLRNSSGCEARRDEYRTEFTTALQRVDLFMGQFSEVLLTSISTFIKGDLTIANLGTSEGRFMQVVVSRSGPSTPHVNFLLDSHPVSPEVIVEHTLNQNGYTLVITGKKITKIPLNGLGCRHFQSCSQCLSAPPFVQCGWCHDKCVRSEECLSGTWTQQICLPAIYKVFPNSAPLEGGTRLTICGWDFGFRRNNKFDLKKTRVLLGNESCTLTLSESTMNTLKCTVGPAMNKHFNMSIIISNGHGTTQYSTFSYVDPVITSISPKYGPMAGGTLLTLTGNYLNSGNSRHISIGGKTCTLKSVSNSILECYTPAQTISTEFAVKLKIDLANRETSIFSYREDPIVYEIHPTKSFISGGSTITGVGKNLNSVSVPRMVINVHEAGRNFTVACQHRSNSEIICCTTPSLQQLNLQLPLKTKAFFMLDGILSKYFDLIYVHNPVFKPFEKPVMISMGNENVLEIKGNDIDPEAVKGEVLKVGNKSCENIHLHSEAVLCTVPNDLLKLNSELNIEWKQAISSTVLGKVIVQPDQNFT

| fold improved potency vs 5D5 Fab v2, HGF-dependent c-MET phosphorylation in A549 cells [1] | IC50, HGF-dependent c-MET phosphorylation in A549 cells (MSD), +HSA [2] | IC50, HGF-dependent c-MET phosphorylation in A549 cells (MSD), -HSA [2] | Kd (human serum albumin [3]) | koff (human serum albumin [3]) | kon (human serum albumin [3]) | Kd (cynomolgus serum albumin [4]) | koff (cynomolgus serum albumin [4]) | kon (cynomolgus serum albumin [4]) | Kd (mouse serum albumin) | koff (mouse serum albumin) | kon (mouse serum albumin) | fold improved potency vs 5D5 Fab v2 (c-MET/Fc [5]) | IC50 (c-MET/Fc [6]) | Kd (human serum albumin [7]) | Kd (cynomolgus serum albumin [8]) | Binder |
| --- | --- | --- | --- | --- | --- | --- | --- | --- | --- | --- | --- | --- | --- | --- | --- | --- |
| ~2 fold | 4.2 nM | 5.41 nM | 24 nM | 0.0033 s⁻¹ | 130000 M⁻¹ s⁻¹ | 27 nM | 0.0032 s⁻¹ | 120000 M⁻¹ s⁻¹ | 300 nM | 0.05 s⁻¹ | 170000 M⁻¹ s⁻¹ | > 5 fold | 0.066 nM | – | – | A007901219 (A00790105-9GS-Alb23) (bispecific antibody, Single polypeptide chain; also called A007901219 (Alb23)) DVQLVESGGGLVQPGGSLRLSCAASGFILDYYAIGWFRQAPGKEREGVLCIDASDDITYYADSVKGRFTISRDNSKNTVYLQMNSLRPEDTAVYYCATPIGLSSSCLLEYDYDYWGQGTLVTVSSGGGGSGGGSEVQLLESGGGLVQPGGSLRLSCAASGFTFRSFGMSWVRQAPGKGPEWVSSISGSGSDTLYADSVKGRFTISRDNSKNTLYLQMNSLRPEDTAVYYCTIGGSLSRSSQGTLVTVSS |
| – | – | – | 2.6 nM | – | – | 2.7 nM | – | – | – | – | – | – | – | 2.7 nM | 3 nM | Alb-23 (VHH, Monovalent anti-serum albumin Nanobody, a humanized version of Alb-1) VHH: EVQLLESGGGLVQPGGSLRLSCAASGFTFRSFGMSWVRQAPGKGPEWVSSISGSGSDTLYADSVKGRFTISRDNSKNTLYLQMNSLRPEDTAVYYCTIGGSLSRSSQGTLVTVSS |
